{"source": "patent US20210060116A1", "about": "(published 2021)", "key": {"[1]": {"biological_target": "Recombinant human p65 protein (r-p65) with DDK tag (catalog number TP320780) (human) (UniProt Q04206)", "sequence (Q04206 whole entry)": "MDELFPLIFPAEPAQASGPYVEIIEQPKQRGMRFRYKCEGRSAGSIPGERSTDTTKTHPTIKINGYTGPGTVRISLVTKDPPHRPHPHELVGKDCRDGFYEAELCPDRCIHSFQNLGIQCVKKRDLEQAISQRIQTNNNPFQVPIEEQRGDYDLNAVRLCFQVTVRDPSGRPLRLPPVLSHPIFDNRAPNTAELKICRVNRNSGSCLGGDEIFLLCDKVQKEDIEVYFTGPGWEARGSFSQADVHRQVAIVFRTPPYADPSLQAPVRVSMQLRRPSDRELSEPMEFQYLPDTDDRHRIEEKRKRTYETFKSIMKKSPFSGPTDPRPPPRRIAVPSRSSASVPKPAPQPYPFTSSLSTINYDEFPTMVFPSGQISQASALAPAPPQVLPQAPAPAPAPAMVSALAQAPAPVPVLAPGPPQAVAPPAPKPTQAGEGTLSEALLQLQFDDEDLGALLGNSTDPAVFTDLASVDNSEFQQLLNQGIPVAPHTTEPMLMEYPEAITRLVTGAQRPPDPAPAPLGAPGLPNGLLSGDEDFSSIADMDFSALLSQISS", "assay": "plate ELISA, Scatchard analysis by the method of Friguet et al."}, "[2]": {"biological_target": "Recombinant human p65 protein (r-p65) with DDK tag (catalog number TP320780) (human) (UniProt Q04206)", "assay": "plate ELISA, peptide 20-640 µM and r-p65, anti-DDK detection; at the lowest concentration evaluated"}, "[3]": {"biological_target": "T1, Recombinant human p65 protein (r-p65) with DDK tag (catalog number TP320780) (human, UniProt Q04206 1-551)", "T1 construct": "mature; also called r-p65-DDK; human r-p65; not shown: DDK tag", "T1 sequence (Q04206 whole entry)": "as above", "assay": "score table: the mark stands in the column >3 of KD (uM)"}, "[4]": {"biological_target": "T1, Recombinant human p65 protein (r-p65) …", "assay": "score table: the mark stands in the column <3 of KD (uM)"}}}
{"binder": "Ac-EPAPLAPYG-NH2", "note": "[GA-2 (GILZ analog 2, as labelled in Examples 3 to 6)]", "values": [{"measurement": "Kd", "setting": "[1]", "value": 3240, "unit": "nM"}, {"measurement": "percent bound r-p65", "setting": "[2]", "value": "> 25", "unit": "%"}]}
{"binder": "Ac-EPAPEQPDG-NH2 (also called Analog 8)", "note": "[PGA-5]", "values": [{"measurement": "Kd", "setting": "[3]", "value": "> 3000", "unit": "nM"}]}
{"binder": "Ac-EPAPLAPYG-NH2 (also called Analog 3; GA-2)", "note": "[PGA-2]", "values": [{"measurement": "Kd", "setting": "[4]", "value": "< 3000", "unit": "nM"}]}
{"binder": "Ac-APKPYQPRG-NH2", "note": "[GA-1 (GILZ analog 1, as labelled in Examples 3 to 6)]", "values": [{"measurement": "Kd", "setting": "[1]", "value": 2290, "unit": "nM"}, {"measurement": "percent bound r-p65", "setting": "[2]", "value": "> 25", "unit": "%"}]}
{"binder": "Ac-EPAPYQPEG-NH2 (also called Analog 14)", "note": "[PGA-3]", "values": [{"measurement": "Kd", "setting": "[3]", "value": "> 3000", "unit": "nM"}]}
{"binder": "Ac-APKPYQPRG-NH2 (also called Analog 20; GA-1)", "note": "[PGA-1]", "values": [{"measurement": "Kd", "setting": "[3]", "value": "> 3000", "unit": "nM"}]}
{"binder": "Ac-EPAPESPQV-NH2 (also called Analog 7)", "note": "[PGA-4]", "values": [{"measurement": "Kd", "setting": "[3]", "value": "> 3000", "unit": "nM"}]}
